The record followed here is US8808698B2, “Methods for inhibition of lymphangiogenesis and tumor metastasis” (The Regents of the University of California, priority 2006, dated 2014).

“Also recorded” adds a separate entry of the source. A value given as a limit tells only on which side of the number the result lay.

One test has as its system lymphatic vessels. In words: Murine lymphangiogenesis and angiogenesis assay in growth factor MATRIGEL plugs. The conditions noted are these: mice, 400 ng growth factor. It counts as in vivo. The procedure: (§1) Lymphangiogenesis and angiogenesis assays in MATRIGEL were performed as described (Eliceiri et al, 1999, Mol. Cell 4:915) by injecting subcutaneously into wild-type C57B1/6 mice (n=5) 400 μL of cold MATRIGEL containing 400 ng of bFGF, VEGF-A, or VEGF-C (R&D Systems, Minneapolis, Minn.). Mice were then injected twice at day1 and day3 with 200 μl of blocking anti-α4β1 (PS2) or anti-α5β1 (5H10) antibodies, or isotype control antibody. After 7 days, MATRIGEL plugs were removed, embedded in OCT, frozen and sectioned. Thin sections (5 μm) were immunostained with anti-CD31 antibodies.
For quantification, vessel numbers, tumor foci or pixel number in 10 microscopic fields per cryosection (per animal) were quantified and the mean number of vessels+/−s.e.m. for the entire treatment group was determined.

Another test deals with Lewis lung carcinoma. In words: Local VEGF-C stimulation of lymph nodes in LLC tumor-bearing mice. It is filed as in vivo. The procedure:
(§2) C57BL/6 mice were injected subcutaneously with 350 μl of ice-cold saline or VEGF-C-containing Matrigel (1 μg/ml) proximal to the inguinal lymph node. In parallel, 5×10^5 LLC cells were injected dorsally near the inguinal or brachial lymph nodes. Mice were sacrificed after 1, 7 and 14 days. Mice with stimulated inguinal nodes were also sacrificed after 21 days. Inguinal, brachial and mesenteric lymph nodes were removed and embedded in OCT for cryosectioning and immunohistochemistry.

The test system of test [1] is lymph nodes. In words: Systemic or local VEGF-C injections in normal mice, lymph node lymphangiogenesis. It counts as in vivo.
The subject of the next test is LLC cells. In words: Transwell migration of LLC cells. It is filed as cell-based, murine. The conditions noted are these: 10, 100 or 500 ng/ml. As for the experimental part: FIG. 29. Analysis of LLC cell expression of integrin α4 and VEGF-R3. A) Expression of VEGF-R3, integrins α5β1 and α4β1 (black lines) on LLC cells was evaluated by flow cytometry. Grey lines depict binding of isotype matched control IgG. While 100% of cells express integrin α5β1, none express α4β1 or VEGF-R3. B) Transwell migration of LLC cells in the presence or absence of serum or VEGF-C at 10, 100 or 500 ng/ml.

Test [2] deals with lymph nodes. The test is described as follows: Lymph node lymphangiogenesis proximal to implanted VEGF-C MATRIGEL
It is filed as in vivo, mice. The procedure: as §1, §2

For a further test, the system named is RFP-LLC cells. In words: Experimental footpad injection metastasis study (RFP-LLC). It is filed as in vivo, mice. The procedure:
Inguinal lymph node lymphangiogenesis was stimulated by injecting mice intradermally above the left inguinal lymph node with 50 μl of saline or VEGF-C (200 ng per mice) every day for 7 days. Mice were inoculated with 10^6 RFP-LLC cells in a volume of 150 μl in the left footpad. Twenty four hours later, mice were sacrificed. Inguinal, brachial and mesenteric lymph nodes were removed and embedded in OCT for cryosectioning and immunofluorescence. RFP-tumor cell and Lyve-1+pixels were quantified on 5 different sections per lymph node.

For the molecule “bFGF: angiogenic growth factor (R&D Systems) [reference compound]”, the “invasion of growth factor saturated MATRIGEL by new lymphatic vessels” value with lymphatic vessels is “new lymphatic vessels invade”.

B1: VEGF-C: lymphangiogenesis-promoting growth factor (R&D Systems) used as stimulus (protein, UniProt P49767 112-227, looked up)
Vascular endothelial growth …: AHYNTEILKSIDNEWRKTQCMPREVCIDVGKEFGVATNTFFKPPCVSVYRCGGCCNSEGLQCMNTSTSYLSKTLFEITVPLSQGPKPVTISFANHTSCRCMSKLDVYRQVHSIIRR
For B1, the “invasion of growth factor saturated MATRIGEL by new lymphatic vessels” value in the test with lymphatic vessels was “new lymphatic vessels invade”. Also, the “lymphatic vessel density in draining (inguinal) lymph node” value in the test on Lewis lung carcinoma (local injection, versus saline) is “significantly increased”. The “lymphangiogenesis and metastasis to other lymph nodes” value in the test with Lewis lung carcinoma (local stimulation of inguinal node) is given as “no effect”. Besides, in the test on Lewis lung carcinoma (local stimulation of inguinal node, after 21 days), the “primary tumor growth (tumor volume)” value was “no effect; also recorded: No statistical difference”. Further, in the test on Lewis lung carcinoma (local stimulation of inguinal node, 21 days for saline treated animals), the “time at which tumor metastases were induced” value is not above 14 days. For the same molecule, in the test on Lewis lung carcinoma (stimulation of brachial node), the “lymphangiogenesis in stimulated distant (brachial) lymph node” value is reported as “selectively enhanced”, the “metastasis to stimulated distant (brachial) lymph node” value is “accelerated metastasis by one week” and the “rate of lymphangiogenesis or metastasis to inguinal or mesenteric nodes” value is on record as “without affecting”. For the same molecule, in the test with lymph nodes [1] (normal mice, local), the “lymph node lymphangiogenesis after local injections proximal to a single lymph node” value was “specifically affected this and not other nodes”. Further, the “lymph node lymphangiogenesis after systemic injections” value with lymph nodes [1] (normal mice, systemic) was “Widespread lymph node lymphangiogenesis”. Moreover, the “blood vessels within lymph nodes (CD31+ pixels/field)” value in the test with lymph nodes [1] (versus saline) is “no significant effect; also recorded: No statistical difference”. For the same molecule, the “LLC cell migration in response to growth factor” value in the test on LLC cells is reported as “do not migrate”. In addition, in the test on lymph nodes [2] (VEGF-C stimulated lymph nodes), the “lymph node lymphatic vessel density / lymphangiogenesis” value was “significant increase”. Further, the lymph node size result in the test with lymph nodes [2] (lymph nodes proximal to implanted MATRIGEL containing VEGF-C) was “expanded dramatically in size”. For the same molecule, in the test on RFP-LLC cells (RFP-LLC into footpad, 24 h), the “tumor cell retention in the stimulated inguinal lymph node” value is given as “strongly enhanced”; the “tumor cell retention in unstimulated brachial or mesenteric lymph nodes” value was “not and No statistical difference”. Also, the “lymphangiogenesis in stimulated inguinal lymph node” value in the test with RFP-LLC cells (intradermal injections for 7 days, non-tumor bearing mice, versus saline) was “significantly induced”.
